Assay results published in patent publication US20230037815A1 (CULLINAN THERAPEUTICS, published 2023).
Positions count from the first letter of the chain named.

T1: human CD19 on CHO cells (human, UniProt P15391 20-556)
T1 construct: whole, on cells; also called Cells Expressing Human CD19; CHO cells overexpressing the antigen
T1 sequence (looked up): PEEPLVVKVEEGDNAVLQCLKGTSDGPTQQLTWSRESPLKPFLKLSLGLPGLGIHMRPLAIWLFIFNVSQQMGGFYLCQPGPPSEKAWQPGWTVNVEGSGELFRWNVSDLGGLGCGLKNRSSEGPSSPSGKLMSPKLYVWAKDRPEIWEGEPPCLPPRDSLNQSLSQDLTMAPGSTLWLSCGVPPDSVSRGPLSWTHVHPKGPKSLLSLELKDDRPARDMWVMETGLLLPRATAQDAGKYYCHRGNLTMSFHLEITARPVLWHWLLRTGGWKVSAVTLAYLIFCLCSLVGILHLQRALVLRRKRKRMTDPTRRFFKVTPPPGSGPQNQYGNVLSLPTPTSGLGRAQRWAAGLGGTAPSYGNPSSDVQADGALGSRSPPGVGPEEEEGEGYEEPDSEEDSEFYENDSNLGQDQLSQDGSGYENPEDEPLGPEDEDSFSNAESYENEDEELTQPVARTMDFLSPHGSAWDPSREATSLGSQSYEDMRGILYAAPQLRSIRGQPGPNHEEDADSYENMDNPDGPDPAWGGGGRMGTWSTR

T2: human CD19 (human, UniProt P15391 20-291, biotinylated in the Biacore assay of Table 11)
T2 construct: also called isolated CD19; Human CD19 Protein
T2 sequence (looked up): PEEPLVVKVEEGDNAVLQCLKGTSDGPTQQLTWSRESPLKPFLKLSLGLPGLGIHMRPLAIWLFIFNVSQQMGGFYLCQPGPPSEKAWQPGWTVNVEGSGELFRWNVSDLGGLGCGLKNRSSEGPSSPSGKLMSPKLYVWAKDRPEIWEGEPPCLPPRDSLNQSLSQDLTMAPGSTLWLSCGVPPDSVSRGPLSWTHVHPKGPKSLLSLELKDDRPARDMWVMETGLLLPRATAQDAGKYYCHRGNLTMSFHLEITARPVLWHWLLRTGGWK

B1: CNG-HSA-114 (VHH)
VHH: KVQLVESGGGLVQPGNSLRLSCAASGFTFSSFGMSWVRQAPGKGLEWVSSISGSGSDTLTADSVKGRFTISRDNSKNTLYLQMNSLRAEDTAVYYCTIGGSLVRSSQGTLVTVSS
B2: CNG-HSA-115 (VHH)
VHH: B1 VHH with S35G, T60Y, D62P, A88P, I98F, G99A, V103S
B3: CNG-CD19-7 (antibody, V domains shown)
VH: QVQLQESGPGLVKPSQTLSLTCTVSGGSISTSGMGVGWIRQHPGKGLEWIGHIWWDDDKRYNPALKSRVTISVDTSKNQFSLKLSSVTAADTAVYYCARMELWSYYFDYWGQGTLVTVSS
VL: EIVLTQSPATLSLSPGERATLSCSASSSVSYMHWYQQKPGQAPRLLIYDTSKLASGIPARFSGSGSGTDFTLTISSLEPEDFAVYYCFQGSVYPFTFGQGTKLEIK
notes: tested as IgG; also called parental antibody
B4: CNG-CD19-704 (antibody, V domains shown)
VH: QVQLQESGPGLVKPSQTLSLTCTVSGGSIASGMGVGWIRQHPGKGLEWIGHIWWDDDKRYNPALKSRVTISVDTSKNQFSLKLSSVTAADTAVYYCARMELWSYYFDGWGQGTLVTVSS
VL: B3 VL
notes: tested as IgG produced in yeast
B5: CNG-CD19-708 (antibody, V domains shown)
VH: B3 VH with G33T, H52F, A64N, I71M, Y109P
VL: B3 VL with S30G, A54S
notes: as for B4
B6: CNG-CD19-705 (antibody, V domains shown)
VH: B3 VH
VL: B3 VL with S30G, K52S
notes: as for B4
B7: CNG-CD19-709 (antibody, V domains shown)
VH: B3 VH with G33T, H52F, A64N, I71M, Y109P
VL: B3 VL with S30G, S55F
notes: as for B4
B8: CNG-CD19-710 (antibody, V domains shown)
VH: B3 VH with G27V, G33S, I53A, Y109P
VL: B3 VL with V29F
notes: as for B4
B9: CNG-CD19-702 (antibody, V domains shown)
VH: B3 VH with I29T, G37S, A64V, Y109P
VL: B3 VL
notes: as for B4
B10: CNG-CD19-701 (antibody, V domains shown)
VH: B3 VH with G33T, H52F, A64N, I71M
VL: B3 VL with S30G
notes: as for B4
B11: CNG-CD19-706 (antibody, V domains shown)
VH: B4 VH with G36S, G108P
VL: B3 VL with S30G
notes: as for B4
B12: CNG-CD19-703 (antibody, V domains shown)
VH: B3 VH with G33T, H52F, A64N, I71M, D108E
VL: B3 VL
notes: as for B4
B13: CNG-CD19-707 (antibody, V domains shown)
VH: B3 VH with G33T, H52F, A64N, I71M, Y109P
VL: B3 VL with S30G
notes: as for B4
B14: CNG-CD19-1 (antibody, V domains shown)
VH: QVQLVQSGAEVKKPGASVKVSCKASGYTFTDYIMHWVRQAPGQGLEWMGYINPYNDGSKYTEKFQGRVTMTSDTSISTAYMELSRLRSDDTAVYYCARGTYYYGPQLFDYWGQGTTVTVSS
VL: DIVMTQTPLSLSVTPGQPASISCKSSQSLETSTGTTYLNWYLQKPGQSPQLLIYRVSKRFSGVPDRFSGSGSGTDFTLKISRVEAEDVGVYYCLQLLEDPYTFGQGTKLEIK
notes: as for B3
B15: CNG-CD19-109 (antibody, V domains shown)
VH: B14 VH with T28D, M34V, K59L
VL: B14 VL with S28Q, V56A, T102S
notes: as for B4
B16: CNG-CD19-105 (antibody, V domains shown)
VH: B14 VH with T28E, Q65E, Q106E
VL: B14 VL with S28R, K58R, Y101P
notes: as for B4
B17: CNG-CD19-110 (antibody, V domains shown)
VH: B14 VH
VL: B14 VL with V56S, Y101P
notes: as for B4
B18: CNG-CD19-106 (antibody, V domains shown)
VH: B14 VH with T28D, K59E
VL: B14 VL with S32A, K58R
notes: as for B4
B19: CNG-CD19-107 (antibody, V domains shown)
VH: B14 VH with T28D, G66H
VL: B14 VL with K58R
notes: as for B4
B20: CNG-CD19-103 (antibody, V domains shown)
VH: B14 VH
VL: B14 VL with S32A, K58R, T102S
notes: as for B4
B21: CNG-CD19-108 (antibody, V domains shown)
VH: B14 VH with T28D, M34V
VL: B14 VL with S32V, Y101P
notes: as for B4
B22: CNG-CD19-104 (antibody, V domains shown)
VH: B14 VH with T28D, M34V, Q106E
VL: B14 VL with S26G, K58R
notes: as for B4
B23: CNG-CD19-101 (antibody, V domains shown)
VH: B14 VH with T28D, E62D, G66E, Q106E
VL: B14 VL with S32T, V56A
notes: as for B4
B24: CNG-CD19-102 (antibody, V domains shown)
VH: B14 VH with T28E, G66P
VL: B14 VL
notes: as for B4

Biological target: cynomolgus serum albumin (cynomolgus, UniProt A2V9Z4 25-608)
Sequence (A2V9Z4 25-608 limits assumed): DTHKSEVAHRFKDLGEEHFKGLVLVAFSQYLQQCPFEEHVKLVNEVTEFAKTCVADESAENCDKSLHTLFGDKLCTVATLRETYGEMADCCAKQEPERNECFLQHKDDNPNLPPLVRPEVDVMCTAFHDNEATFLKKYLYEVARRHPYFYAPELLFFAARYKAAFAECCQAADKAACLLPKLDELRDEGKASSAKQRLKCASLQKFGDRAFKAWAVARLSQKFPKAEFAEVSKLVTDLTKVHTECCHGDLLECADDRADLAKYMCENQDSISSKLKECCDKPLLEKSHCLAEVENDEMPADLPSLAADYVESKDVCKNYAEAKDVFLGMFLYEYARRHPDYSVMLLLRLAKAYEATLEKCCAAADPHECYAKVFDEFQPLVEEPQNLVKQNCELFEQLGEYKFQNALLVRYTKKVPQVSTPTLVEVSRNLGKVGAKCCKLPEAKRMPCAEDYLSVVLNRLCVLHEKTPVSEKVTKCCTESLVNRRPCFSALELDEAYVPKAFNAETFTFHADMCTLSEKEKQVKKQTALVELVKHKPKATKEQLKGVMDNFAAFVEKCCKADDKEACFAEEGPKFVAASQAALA
Assay: Octet HTX (ForteBio), HCAb on AHC sensor, 1:1 fit

Row | Kd | koff | Binder
1 | 12 nM | 0.00173 s⁻¹ | B1
2 | 3.37 nM | 0.000618 s⁻¹ | B2

Biological target: T3, mouse serum albumin (mouse, UniProt P07724 25-608)
T3 construct: also called MSA
T3 sequence (P07724 25-608 limits assumed): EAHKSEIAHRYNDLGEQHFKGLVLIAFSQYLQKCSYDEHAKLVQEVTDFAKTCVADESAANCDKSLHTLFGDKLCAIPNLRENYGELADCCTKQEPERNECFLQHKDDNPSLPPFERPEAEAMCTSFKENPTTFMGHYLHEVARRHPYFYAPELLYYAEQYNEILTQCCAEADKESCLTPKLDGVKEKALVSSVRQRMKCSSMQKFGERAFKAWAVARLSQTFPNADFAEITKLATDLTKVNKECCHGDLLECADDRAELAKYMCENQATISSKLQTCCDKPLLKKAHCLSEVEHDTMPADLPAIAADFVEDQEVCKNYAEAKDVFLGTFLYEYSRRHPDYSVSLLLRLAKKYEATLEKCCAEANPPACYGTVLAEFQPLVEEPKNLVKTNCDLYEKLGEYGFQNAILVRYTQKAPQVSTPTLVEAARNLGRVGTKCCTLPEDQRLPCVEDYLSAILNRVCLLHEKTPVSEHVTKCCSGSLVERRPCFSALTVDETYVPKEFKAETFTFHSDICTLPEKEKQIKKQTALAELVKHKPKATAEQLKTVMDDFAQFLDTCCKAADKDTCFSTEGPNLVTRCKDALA
Assay: Octet HTX (ForteBio), HCAb on AHC sensor, 1:1 fit

Row | Kd | koff | Binder
3 | 17.5 nM | 0.0038 s⁻¹ | B1
4 | 6.43 nM | 0.00132 s⁻¹ | B2

Biological target: T4, human serum albumin (human, UniProt P02768 25-609)
T4 construct: also called HSA
Assay: Octet HTX (ForteBio), HCAb on AHC sensor, 1:1 fit

Row | Kd | koff | Binder
5 | 14.7 nM | 0.00221 s⁻¹ | B1
6 | 2.96 nM | 0.000441 s⁻¹ | B2

Biological target: T3, mouse serum albumin
Assay: ratio of the Octet KD for mouse serum albumin to that for human serum albumin

Row | Ratio of MSA-KD to HSA-KD | Binder
7 | 1.2 | B1
8 | 2.17 | B2

Biological target: T1, human CD19 on CHO cells
Assay: flow cytometry, CHO cells, 100 nM IgG
Procedure: The binding affinity of the antibodies to CD19 expressed on the cell surface was also measured. Briefly, approximately 100,000 Chinese hamster overy (CHO) cells overexpressing the antigen were washed with wash buffer and incubated with 100 μl 100 nM IgG for 15 minutes at room temperature. Cells were then washed twice with wash buffer and incubated with 100 μl of 1:100 Human-PE for 15 minutes on ice. Cells were then washed twice more with wash buffer and analyzed on a FACS Canto II analyzer (BD Biosciences).

Row | Binding to Cells Expressing Human CD19 (FOB) | Binder
9 | 71 FOB | B3
10 | 140 FOB | B4
11 | 210 FOB | B5
12 | 105 FOB | B6
13 | 234 FOB | B7
14 | 153 FOB | B8
15 | 180 FOB | B9
16 | 195 FOB | B10
17 | 241 FOB | B11
18 | 135 FOB | B12
19 | 237 FOB | B13
20 | 267 FOB | B14
21 | 334 FOB | B15
22 | 351 FOB | B16
23 | 293 FOB | B17
24 | 354 FOB | B18
25 | 315 FOB | B19
26 | 286 FOB | B20
27 | 319 FOB | B21
28 | 327 FOB | B22
29 | 296 FOB | B23
30 | 258 FOB | B24

Biological target: T2, human CD19
Assay: Octet HTX (ForteBio), IgG on AHC sensor, 1:1 fit
Procedure: The binding affinity of the antibodies to isolated CD19 was measured by […] using a ForteBio Octet HTX system as previously described (see, e.g., Estep et al, High throughput solution-based measurement of antibody-antigen affinity and epitope binning. Mabs 5(2), 270-278 (2013)). Briefly, ForteBio affinity measurements were performed by loading IgGs on-line onto anti-hIgG Fc Capture (AHC) sensors. The sensors were equilibrated off-line in assay buffer for 30 minutes and then monitored on-line for 60 seconds for baseline establishment. The sensors with loaded IgGs were exposed to 100 nM […] for 3 minutes, and subsequently transferred to assay buffer for 3 minutes for off-rate measurement. All kinetics were analyzed using the 1:1 binding model.

Row | Kd | koff | Binder
31 | 2.25 nM | 0.000396 s⁻¹ | B3
32 | 0.367 nM | 0.000101 s⁻¹ | B4
33 | 0.156 nM | 6.69e-05 s⁻¹ | B5
34 | 0.248 nM | 4.7e-05 s⁻¹ | B6
35 | 0.107 nM | 4.6e-05 s⁻¹ | B7
36 | 0.135 nM | 4e-05 s⁻¹ | B8
37 | 0.5 nM | 0.000175 s⁻¹ | B9
38 | 0.187 nM | 7.05e-05 s⁻¹ | B10
39 | 0.0859 nM | 4e-05 s⁻¹ | B11
40 | 0.289 nM | 8.19e-05 s⁻¹ | B12
41 | 0.104 nM | 4.66e-05 s⁻¹ | B13
42 | 0.346 nM | 0.000114 s⁻¹ | B14
43 | 0.144 nM | 4e-05 s⁻¹ | B15
44 | 0.164 nM | 8.28e-05 s⁻¹ | B16
45 | 0.353 nM | 0.000121 s⁻¹ | B17
46 | 0.189 nM | 0.000114 s⁻¹ | B18
47 | 0.277 nM | 5.71e-05 s⁻¹ | B19
48 | 0.106 nM | 4e-05 s⁻¹ | B20
49 | 0.164 nM | 5.26e-05 s⁻¹ | B21
50 | 0.144 nM | 6e-05 s⁻¹ | B22
51 | 0.144 nM | 5.72e-05 s⁻¹ | B23
52 | 0.298 nM | 9.12e-05 s⁻¹ | B24
